This note sets out measurements from article doi:10.1101/2020.02.21.960245 (bioRxiv, 2020).

The labels stand for the following.
T1: untagged Rec114 (S. cerevisiae, UniProt P32841 1-428)
T1 sequence: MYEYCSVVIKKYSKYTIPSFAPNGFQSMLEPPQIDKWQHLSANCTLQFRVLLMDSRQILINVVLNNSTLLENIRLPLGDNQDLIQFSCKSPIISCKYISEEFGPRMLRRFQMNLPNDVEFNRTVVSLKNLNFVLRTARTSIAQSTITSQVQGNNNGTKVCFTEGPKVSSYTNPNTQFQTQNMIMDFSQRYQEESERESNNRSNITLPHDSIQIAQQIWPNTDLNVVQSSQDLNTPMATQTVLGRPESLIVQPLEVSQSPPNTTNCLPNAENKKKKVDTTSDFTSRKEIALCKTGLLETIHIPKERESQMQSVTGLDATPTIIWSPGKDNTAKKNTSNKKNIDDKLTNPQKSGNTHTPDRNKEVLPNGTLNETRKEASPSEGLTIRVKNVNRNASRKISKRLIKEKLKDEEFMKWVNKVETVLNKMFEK

T2: Rec114(375-428) (S. cerevisiae, UniProt P32841 375-428)
T2 sequence: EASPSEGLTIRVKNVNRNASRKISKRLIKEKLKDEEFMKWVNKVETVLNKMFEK

B1: MBPMei4 (natural protein)
chain: MSRGKLEDMEQKETSEVDWIICFALIQSRNPTLWKRALSRKKGDVEDVGALKSEKNLKINPRENSKHIYKWVAPFENGFLNNKSLFAHLEPIYNFLCQNKYKSFEDAVGLKELQSFSKDVSTADINNWFLPRYKILLKILSLKTKEIDFRGLSQVFQTLQILLVSHYSHRIDSDSSFKRTLIDVHVFNFIAKFLFNRILLKKNQNDPKWLQNFYDQGDGKHLCDKVDYKRLCSLHFTLIYSIINIQLIKIKTNQTFEPQILKYVSVLKLIEHILIIIESLIHVLIRFVSKHKLICINRKKAYCRVYLERELSLKKTYLKNFYSVISGVPEKELGGLLKILKIVILSLLETFESIEWQHLKPFLEKFPAHEISLQKKRKYIQAALLITAERNLIARFRLSRWFNETENI
B2: untagged Mei4 (natural protein)
chain: B1 chain
B3: coiled-coil domain of Mer2 (residues 77-227) (domain or fragment)
chain: IKVLNENSKTLCKSLNKFNQLLEQDAATNGNVKTLIKDLASQIENQLDKVSTAMLSKGDEKKTKSDSSYRQVLVEEISRYNSKITRHVTNKQHETEKSMRCTQEMLFNVGSQLEDVHKVLLSLSKDMHSLQTRQTALEMAFREKADHAYDR
B4: untagged Mer2 (natural protein)
chain: MVARGRTDEISTDVSEANSEHSLMITETSSPFRSIFSHSGKVANAGALEESDKQILEWAGKLELESMELRENSDKLIKVLNENSKTLCKSLNKFNQLLEQDAATNGNVKTLIKDLASQIENQLDKVSTAMLSKGDEKKTKSDSSYRQVLVEEISRYNSKITRHVTNKQHETEKSMRCTQEMLFNVGSQLEDVHKVLLSLSKDMHSLQTRQTALEMAFREKADHAYDRPDVSLNGTTLLHDMDEAHDKQRKKSVPPPRMMVTRSMKRRRSSSPTLSTSQNHNSEDNDDASHRLKRAARTIIPWEELRPDTLESEL
B5: untagged wild-type Rec114(325-428) (domain or fragment)
chain: PGKDNTAKKNTSNKKNIDDKLTNPQKSGNTHTPDRNKEVLPNGTLNETRKEASPSEGLTIRVKNVNRNASRKISKRLIKEKLKDEEFMKWVNKVETVLNKMFEK
B6: HisFlagRec114 (natural protein)
chain: T1 sequence

Where two headings read alike, the source gives them in different places.

The target in data set [1] is B6. The experiment in a line: SEC-MALS. For orientation: In gel filtration, larger molecules generally elute earlier.
For data set [2], the target named is T1, untagged Rec114. The experiment in a line: SEC-MALS.
Data set [3] deals with the molecule itself. The experiment in a line: SEC-MALS.
Data set [4] concerns the molecule itself. The experiment in a line: SEC-MALS. This is another data set of the same source.
Data set [5] has as its target T2, Rec114(375-428). The experiment in a line: SEC-MALS.
Data set [6] deals with the molecule itself. The experiment in a line: cross-linking.

Take B1: the “stoichiometry N” value in data set [1] came out at 2 Rec114 per Mei4. On to B2, for which the “stoichiometry N” value in data set [2] worked out at 2 Rec114 per Mei4. On to B3, for which the “stoichiometry N” value in data set [3] is 4. B4: the “stoichiometry N” value in data set [4] was determined as 4.

On to B5, for which the “stoichiometry N” value in data set [3] is 2.

With MSRGKLEDMEQKETSEVDWIICFALIQSRNPTLWKRALSRKKG (domain or fragment) [Mei4(1-43)], the “stoichiometry N” value in data set [5] amounted to 2 Rec114 per Mei4. On to B6, for which the binding result in data set [6] is recorded as “binds”.

In general, stoichiometry N refers to the number of molecules, sites or subunits per partner or assembly.
